# Experimental data reported in patent US20170252327A1, “Methods of Modulating Gastrointestinal Tract Flora Levels with Alkaline Phosphatase” (priority 2008, published 2017).
# Entries after “also recorded” stand apart in the source; their conditions may differ.
# B1: calf intestinal alkaline phosphatase (protein, UniProt P19111 20-506, looked up)
# Intestinal-type alkaline …: LVPVEEEDPAFWNRQAAQALDVAKKLQPIQTAAKNVILFLGDGMGVPTVTATRILKGQMNGKLGPETPLAMDQFPYVALSKTYNVDRQVPDSAGTATAYLCGVKGNYRTIGVSAAARYNQCKTTRGNEVTSVMNRAKKAGKSVGVVTTTRVQHASPAGAYAHTVNRNWYSDADLPADAQMNGCQDIAAQLVNNMDIDVILGGGRKYMFPVGTPDPEYPDDASVNGVRKRKQNLVQAWQAKHQGAQYVWNRTALLQAADDSSVTHLMGLFEPADMKYNVQQDHTKDPTLQEMTEVALRVVSRNPRGFYLFVEGGRIDHGHHDDKAYMALTEAGMFDNAIAKANELTSELDTLILVTADHSHVFSFGGYTLRGTSIFGLAPSKALDSKSYTSILYGNGPGYALGGGSRPDVNDSTSEDPSYQQQAAVPQASETHGGEDVAVFARGPQAHLVHGVEEETFVAHIMAFAGCVEPYTDCNLPAPTTATSIPD
# notes: calf intestinal alkaline phosphatase enzyme (Sigma)
# How the values were obtained:
# gut microbiota [1] = assay: Restoration of gut flora after streptomycin treatment with or without cIAP (stool culture in LB media); assay type: in vivo, mice (C57BL/6)
# Experimental: To address the role of intestinal alkaline phosphatase on the gastrointestinal tract flora of mammals, an experiment was performed in which five approximately six week old mice (C57BL/6) of each test group were treated with an antimicrobial drug, streptomycin, in the presence or absence of calf intestinal alkaline phosphatase (cIAP) (Sigma, St. Louis, Mo.). Both streptomycin (5 mg/ml) and cIAP (50 units/ml) were administered orally with the animal's drinking water. Individual stool samples of each group were cultured in LB media each day and analyzed for the presence/absence of gut flora. The gastrointestinal tract flora of mice before antibiotic treatment was considered as a baseline control for the normal gut flora (present in all samples).
# gut microbiota [2] = assay: Restoration of gut flora after ampicillin treatment with or without cIAP (stool culture in LB media); assay type: in vivo, mice (C57BL/6)
# Experimental: An experiment was performed in which five mice (C57BL/6) of each test group, approximately 6 weeks old, were treated with 1 mg/ml of the antimicrobial drug ampicillin, in the presence or absence of calf intestinal alkaline phosphatase (cIAP) (New England Biolabs, Ipswich, Mass.). Ampicillin was administered orally with the animal's drinking water at a concentration of 1 mg/ml, and 250 units of cIAP were administered twice daily as oral gavage. Individual stool samples of each group were cultured in LB media each day and analyzed for the presence/absence of the gut flora. The gut flora of mice before receiving the antibiotic was considered as a baseline control for normal gastrointestinal tract flora (present in all samples). […] Both treatment groups received ampicillin for 10 days.
# [3] = assay type: physicochemical; conditions: 24 h
# Experimental: IAP activity was determined following the protocol as described by Baykov et al. (Anal Biochem, 171:266, 1988). Briefly, individual stool samples were homogenized in water (10 mg/100 μl), centrifuged and supernatant was collected. Then 25 μl of the stool supernatant (or aqueous cIAP solution) were mixed with 175 μl phosphatase assay reagent containing 5 mM of p-nitrophenyl phosphate (pNPP) followed by determining optical density at 405 nm after a specific time period when the samples usually turned yellow due to release of p-nitrophenol. Protein concentrations of stool supernatants were measured using a kit from Bio-Rad Laboratories (Hercules, Calif.). The specific activity of the enzyme, expressed as pmole pNPP hydrolyzed per minute per μg of protein, and CFU per gm of stool +/− SEM were determined and the results are shown in FIG. 3. As expected, IAP activity is lower in hypothyroid animals (Weeks 6-32, FIG. 3A) as compared to the euthyroid animals (Week 0, FIG. 3A). […] At Week 32 the IAP activity in hyperthyroid animals was approximately 7-fold higher compared to euthyroid animals and 15-fold higher compared to hypothyroid animals. […] On the other hand the fecal bacterial counts in hyperthyroid animals continued to gradually increase, being the highest at Week 32 when the experiment was terminated (FIGS. 3B, 3C, and 3D). […]
# [4] = test system: streptomycin-resistant E. coli; assay: Survival of gavaged commensal E. coli in IAP-KO mice given oral cIAP; assay type: in vivo; conditions: oral supplementation of cIAP
# Description: Two groups of IAP-KO animals (n=6) were put on drinking water containing cIAP or ‘vehicle for cIAP.’ On Day 2, animals were gavaged with 20,000 CFU of streptomycin-resistant E. coli, which is a commensal bacterium isolated from the stool of a WT mouse, and the presence of streptomycin-resistant E. coli in the stools of these animals was closely monitored. As only a few animals carried E. coli in their stools (FIG. 4B), the animals were gavaged with another dose of 50,000 CFU of E. coli on Day 5, however, again only a few animals shed E. coli in their stools. On Day 8, most of the animals of either group carried no E. coli in their stools. Supplementation of cIAP was stopped and the animals were treated with streptomycin for 3 days, which should kill most of the native flora, but would allow proliferation of the surviving streptomycin-resistant E. coli.
# [5] = test system: streptomycin-resistant E. coli; assay: Colonization of E. coli in antibiotic-treated WT mice supplemented with cIAP; assay type: in vivo; conditions: WT mice after streptomycin and ciprofloxacin, p<0.015
# Experimental: To determine the temporal effects of IAP on the restoration of commensal gut flora, groups of WT animals (n=6) were treated with streptomycin (5 mg/ml) and ciprofloxacin (0.5 mg/ml) for three days followed by oral gavage of small doses (20,000 CFU) of streptomycin-resistant E. coli for two alternate days (FIG. 4C; Day 0 and Day 2) in the presence or absence of cIAP.
# [6] = test system: Gram-negative bacteria (mostly E. coli); assay: Restoration of commensal Gram-negative gut flora in streptomycin-treated WT mice with or without cIAP (MacConkey agar); assay type: in vivo; conditions: for Number of animals with commensal Gram-negative bacteria / restoration of gut flora, cIAP+ vs cIAP- Group: after streptomycin for three days, cIAP 200 U/ml, p<0.00004
# Experimental: Accordingly, experiments were performed in which groups of WT mice (n=10) were treated orally with the antibiotic streptomycin in the presence or absence of cIAP. Streptomycin (5 mg/ml) and cIAP (200 U/ml for cIAP^+ Group, n=5) or ‘vehicle for cIAP’ (20 μl/ml ‘vehicle for cIAP’ (50 mM KCl, 10 mM Tris-HCl (pH 8.2), 1 mM MgCl, 0.1 mM ZnCl2, and 50% glycerol) in drinking water for control cIAP^− Group, n=5) were administered in the animals' drinking water and fecal cultures were performed.
# Individual stool samples were cultured each day on MacConkey agar media. […] After discontinuation of antibiotic treatment, the time of appearance (Day) of Gram-negative bacteria (mostly E. coli, occasionally P. mirabilis) in stool samples was recorded for each animal. The experiment was repeated six times, which raised the total number of animals in each group to 39 (n=39), however, duration of each experiment varied (7-35 days). Data was compiled from all six experiments and the number of animals with E. coli in each group on a specific day was recorded.
# [7] = test system: streptomycin-resistant S. typhimurium; assay: Growth of Salmonella typhimurium in streptomycin-treated WT mice with or without cIAP; assay type: in vivo; conditions: for Growth of pathogenic S. typhimurium: cIAP in the drinking water
# Experimental: Restoration or maintenance of the normal gastrointestinal tract flora by IAP was postulated to inhibit infection by pathogenic bacteria because pathogenic bacteria would likely face competition for ‘food and shelter’ (e.g., nutrition, epithelial attachment sites, space, etc.) and antibacterial factors produced by commensal organisms. Accordingly, groups of WT mice (n=5) were treated with streptomycin (5 mg/ml) for 3 days, followed by oral gavage of 500,000 CFU of streptomycin-resistant S. typhimurium in the presence of cIAP (200 U/ml for cIAP^+ Group) or absence of cIAP (20 μl /ml ‘vehicle for cIAP’ (50 mM KCl, 10 mM Tris-HCl (pH 8.2), 1 mM MgCl2, 0.1 mM ZnCl2, and 50% glycerol) in drinking water for control cIAP^− Group). The presence of S. typhimurium was monitored in the stools of these animals by plating stools on Hektoen plates containing streptomycin (100 μg/ml).
molecule,measurement,setting,value
B1,Gut flora of mice receiving only cIAP,"gut microbiota [1]; cIAP 50 units/ml in drinking water, no streptomycin",normal gut flora phenotype; also recorded: did not affect normal gut flora
same,Effect of cIAP on reestablishment of normal gut flora,gut microbiota [1]; co-administered with streptomycin throughout the treatment period,significantly enhanced the early reestablishment of normal gut flora
same,Gut flora of mice receiving only cIAP,"gut microbiota [2]; 250 units cIAP twice daily oral gavage, no ampicillin",normal gut flora phenotype; also recorded: did not affect normal gut flora
same,Effect of cIAP on time for restoring the normal gut flora,gut microbiota [2]; with ampicillin,significantly reduced the time for restoring the normal gut flora
same,cIAP enzymatic activity remaining,[3],approximately 80%
same,Survival of E. coli in IAP-KO mice,[4],can survive
same,Survival of E. coli in IAP-KO mice,[4]; listed as IAP,favors survival of E. coli
same,Colonization of E. coli,[5],temporal enhancement of colonization of E. coli
same,Colonization of E. coli,[5]; listed as IAP,temporal enhancement of E. coli colonization
same,"Number of animals with commensal Gram-negative bacteria / restoration of gut flora, cIAP+ vs cIAP- Group",[6],much higher
same,"Number of animals with commensal Gram-negative bacteria / restoration of gut flora, cIAP+ vs cIAP- Group",[6]; listed as IAP,enhances the restoration of antibiotic-associated loss of gut flora
same,Day at the end of which all animals showed E. coli in their stools,"[6]; cIAP+ Group, after discontinuation of streptomycin",3 days
same,"Salmonella count, less than in cIAP- Group","[7]; cIAP 200 U/ml in drinking water, p<0.001",approximately 4 log
same,Growth of pathogenic S. typhimurium,[7],dramatically inhibited
same,Growth of pathogenic S. typhimurium,[7]; listed as IAP,inhibits Salmonella typhimurium infection
